Columns and labels:
[1] = molecular target: RPA70 residues 181-616 (70ABC subunit of the human RPA DNA-binding core, RPA-DBC) (human, UniProt P27694 181-616); test: SEC-MALS
[2] = molecular target: RPA-DBC (RPA70ABC/32D/14 DNA-binding core) (human, UniProt P27694;P15927;P35244 181-616;43-171;1-121); test: SANS / gel filtration
Sequence of RPA-DBC (RPA70ABC/32D/14 DNA-binding core) (P27694 181-616, chain 1 of 2): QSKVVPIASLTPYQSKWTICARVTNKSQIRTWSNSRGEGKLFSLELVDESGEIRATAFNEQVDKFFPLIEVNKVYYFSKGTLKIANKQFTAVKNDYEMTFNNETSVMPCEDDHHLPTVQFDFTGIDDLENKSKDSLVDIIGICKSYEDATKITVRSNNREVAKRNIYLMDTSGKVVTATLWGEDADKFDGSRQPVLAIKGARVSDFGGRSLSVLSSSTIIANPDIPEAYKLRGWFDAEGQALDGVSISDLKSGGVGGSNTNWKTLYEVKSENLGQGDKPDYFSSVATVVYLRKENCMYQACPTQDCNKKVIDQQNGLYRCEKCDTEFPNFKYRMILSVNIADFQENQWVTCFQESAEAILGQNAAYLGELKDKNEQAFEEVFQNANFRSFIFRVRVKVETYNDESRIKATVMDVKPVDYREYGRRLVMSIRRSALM
Sequence of RPA-DBC (RPA70ABC/32D/14 DNA-binding core) (P35244 whole entry, chain 3 of 2): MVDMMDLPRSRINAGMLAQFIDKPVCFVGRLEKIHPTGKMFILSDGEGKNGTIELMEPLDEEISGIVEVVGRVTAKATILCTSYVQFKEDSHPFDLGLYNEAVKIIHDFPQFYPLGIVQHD

Sequence of RPA70 residues 181-616 (70ABC subunit of the human RPA DNA-binding core, RPA-DBC) (P27694 181-616): as the sequence (P27694 181-616, chain 1 of 2) above

| Binder | binding result [1] | binding result [2] |
| --- | --- | --- |
| RPA32 residues 43-171 (32D subunit of the human RPA DNA-binding core, RPA-DBC) (domain or fragment) AQHIVPCTISQLLSATLVDEVFRIGNVEISQVTIVGIIRHAEKAPTNIVYKIDDMTAAPMDVRQWVDTDDTSSENTVVPPETYVKVAGHLRSFQNKKSLVAFKIMPLEDMNEFTTHILEVINAHMVLSK | binds | – |
| TTTTTTTTTTTTTTTTTTTTTTTTTTTTTT (ssDNA) [dT30] | – | binds |

— PMC3575853 (Nucleic Acids Research, 2013)
